According to patent publication US10596234B2, “Compositions and methods to inhibit viral replication” (priority 2016, dated 2020):

Key:
[1] = biological target: T1, cGAS (Mus musculus, UniProt Q8C6L5); assay: In vitro cGAMP activity assay; assay type: biochemical; settings: in vitro cGAMP reaction
T1 construct: Purified mcGAS(141-507) was deamidated by purified FLAG-UL37 in vitro; made in house; host or cells: E. coli BL21 (DE3)
Method: 1 μM of MBP-cGAS or mutant proteins was mixed with 100 μM ATP and 100 μM GTP and 10 μCi [α-P32]-ATP in reaction buffer (20 mM Tris-Cl [pH 7.5], 150 mM NaCl, 5 mM MgCl2, 1 mM dithiothreitol [DTT]). After 2 h of incubation at 37° C., 2 μl of reaction solution was spotted onto PEI-Cellulose thin layer chromatography plate (Sigma). Reaction products were resolved with running buffer (1 M (NH4)2SO4, 1.5 M KH2PO4, pH 3.8). The TLC plates were dried and scanned with Phosphoimager (Fuji).

[2] = system: cGAS; assay: In vitro deamidation assay (cGAS); assay type: biochemical, mouse; settings: purified proteins
Method: The in vitro deamidation assay was performed as previously described. Briefly, 5 μg of purified MBP-mcGAS or MBP-mcGAS-DDEE mutant on amylose resin was incubated with 0.5 gig of purified FLAG-UL37 or FLAG-UL37C819S at 30° C. for 45 min in deamidation buffer (50 mM Tris-HCl [pH 7.5], 100 mM NaCl, and 5 mM MgCl2). Then the reaction was stopped by adding rehydration buffer and the eluted proteins were analyzed by two-dimensional gel electrophoresis.

[3] = system: cGAS; assay: cGAMP reporter assay (THP1-Lucia); assay type: cell-based, human; settings: THP-1 cells transfected with HT-DNA (HT-DNA alone approximately 60 ng)
Method: THP-1 Cells were transfected with HT-DNA (2 μg/ml) or infected with HSV-1 virus for 6 h. Cell extracts were prepared by heating at 95° C. for 5 min to denature most proteins, and then the precipitated proteins were removed by centrifugation. The supernatant containing cGAMP was delivered to digitonin-permeabilized (2.5 μg/ml for 30 min) THP1-Lucia cells at 37° C. for 30 min. The cells were cultured for another 20 h before Lucia reporter activity was measured according to the manufacturer's instruction (InvivoGen). Pure cGAMP was diluted and used as standard for the assay.

[4] = system: PRDIII promoter; assay: Dual-luciferase reporter assay (PRDIII, SeV infection); assay type: cell-based, human; settings: 293T cells, SeV 100 HAU/ml
Method: HEK293T cells, seeded in 24-well plates (˜50% cell density), were transfected with IFN-β, PRDIII (ISRE) or NF-κB reporter plasmid cocktail (50 ng of luciferase reporter plasmid and 5 ng of pRL Renilla luciferase control vector) and expression plasmid (empty plasmid, one or multiple plasmids depending on the experiment) by calcium phosphate precipitation. Cells were infected with SeV (100 HA/ml), HSV-1 for 16 h, transfected with Poly [I:C] for 16 h or directly harvested 30-36 h post transfection. Whole cell lysates were used to determine the activity of firefly luciferase and renilla luciferase by a microplate reader (FLUOstar Omega).

[5] = system: cGAS; assay: Real-time PCR in THP-1 cells stably expressing UL37, transfected with HT-DNA; assay type: cell-based, human; settings: THP-1 stable cell lines
Method: THP-1 or L929 cells were infected with HSV-1 (MOI=5) or stimulated with HT-DNA (2 μg/ml) or cGAMP (2 μg/ml) for 6 h unless specifically indicated otherwise. Cells were washed with cold PBS, and total RNA was extracted by using TRIzol Reagent (Invitrogen). RNA was digested with DNase I (New England Biolabs) to remove genomic DNA. One microgram of total RNA was used for reverse transcription with PrimeScript Reverse Transcriptase (Clontech) according to the manufacturer's instruction. Approximately 0.5% of the cDNA was used as template in each quantitative real-time PCR (qRT-PCR) reaction with SYBR master mix (Applied biosystems).
Lentivirus production was carried out in 293T cells as described previously. THP-1 or L929 cells were infected with lentivirus containing UL37 or UL37 C819S mutant. After 36 h, THP-1 cells were selected with puromycin at 1 μg/ml and L929 cells were selected with puromycin at 5 μg/ml.

[6] = system: RIG-I; assay: Gel filtration of purified RIG-I (oligomerization); assay type: cell-based, human; settings: cells infected with HSV-1, 4 h
Method: Virus-infected HEK293T/Flag-RIG-I or HeLa/Flag-RIG-I stable cells were harvested and lysed in cold Triton X-100 buffer (20 mM Tris, pH 7.5, 150 mM NaCl, 1.5 mM MgCl2, 20 mM β-glycerophosphate, 1 mM sodium orthovanadate, 10% glycerol, 0.5 mM EGTA, 0.5% Triton X-100, 1 mM PMSF and 10 μg/ml leupeptin). Centrifuged supernatant was filtered and subjected to incubation with anti-Flag-conjugated agarose beads for 2 h at 4° C. Beads were then extensively washed and proteins were eluted with 3× Flag peptide at 0.2 mg/ml.
Gel filtration with superose 6 was performed as described previously. Briefly, eluted proteins (200-300 μl) were loaded to superose 6 column and subjected to gel filtration analysis with Buffer B (20 mM Tris-HCl, pH 7.6, 150 mM NaCl, 1 mM EDTA, 0.5 mM EGTA, 0.5% Triton X-100, 20 mM NaF, 20 mM β-glycerophosphate, 1 mM Na3VO4, 2.5 mM metabisulphite [sodium salt], 5 mM benzamidine). Elution was collected in 0.5 ml fractions and aliquots of fractions were analyzed by immunoblotting.

[7] = system: IFN-β and RANTES; assay: Cytokine ELISA, HEK293 RIG-I stable cell lines infected with HSV-1; assay type: cell-based, human; settings: HSV-1-infected cells, supernatant at 16 hpi
Method: Commercial cytokine ELISA kits used in this study include: human IFN-β (PBL Assay Science) and human RANTES (R&D Systems). Cytokine levels in the supernatant from cultured cells were assessed according to manufacturer's instruction. Absorbance was determined with FLUOstar Omega (BMG Labtech.).

[8] = system: RIG-I; assay: Two-dimensional gel electrophoresis of RIG-I deamidation in cells; assay type: cell-based, human; settings: 2-DGE and immunoblotting
Method: Cells (1×10^6) were lysed in 150 μl rehydration buffer (8 M Urea, 2% CHAPS, 0.5% IPG Buffer, 0.002% bromophenol blue) by three pulses of sonication and whole cell lysates were centrifuged at 20,000 g for 15 min. Supernatants were loaded to IEF strips for focusing with a program comprising: 20 V, 10 h (rehydration); 100 V, 1 h; 500 V, 1 h; 1000 V, 1 h; 2000 V, 1 h; 4000 V, 1 h; 8000 V, 4 h. After IEF, strips were incubated with SDS equilibration buffer (50 mM Tris-HCl [pH8.8], 6 M urea, 30% glycerol, 2% SDS, 0.001% Bromophenol Blue) containing 10 mg/ml DTT for 15 min and then SDS equilibration buffer containing 2-iodoacetamide for 15 min. Strips were washed with SDS-PAGE buffer, resolved by SDS-PAGE, and analyzed by immunoblotting.

[9] = system: HSV-1; assay: HSV-1 plaque assay in HEK293 cells stably expressing RIG-I wild-type or mutants; assay type: cell-based; settings: HEK293 stable cells, HSV-1 MOI=0.5

T1 sequence (Q8C6L5 141-507): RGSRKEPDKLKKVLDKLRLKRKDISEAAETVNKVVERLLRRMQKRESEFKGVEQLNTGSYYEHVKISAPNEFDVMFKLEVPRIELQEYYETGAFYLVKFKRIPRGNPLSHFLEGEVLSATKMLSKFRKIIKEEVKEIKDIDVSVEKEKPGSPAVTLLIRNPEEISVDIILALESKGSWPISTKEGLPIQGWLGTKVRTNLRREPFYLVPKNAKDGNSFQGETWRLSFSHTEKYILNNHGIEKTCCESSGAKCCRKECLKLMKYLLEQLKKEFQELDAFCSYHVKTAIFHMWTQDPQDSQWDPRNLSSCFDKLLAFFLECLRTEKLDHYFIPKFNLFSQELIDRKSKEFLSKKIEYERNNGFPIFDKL

UL37C819S
effect of added UL37 on cGAS-mediated cGAMP production [1]: less, albeit still significant, inhibition of cGAMP production
cGAS deamidation in vitro (2DGE shift) [2]: failed to do so
intracellular cGAMP [3]: ~85 ng per one million THP-1 cells
blockade of SeV-induced PRDIII promoter activation [4]: greatly impaired blockade of PRDIII induction by SeV
effect on expression of IFNB1, ISG56 and CXCL10 induced by HT-DNA [5]: no detectable effect on IFNB1 and ISG56 expression

B1: RIG-I-QQ (protein)
chain: MTTEQRRSLQAFQDYIRKTLDPTYILSYMAPWFREEEVQYIQAEKNNKGPMEAATLFLKFLLELQEEGWFRGFLDALDHAGYSGLYEAIESWDFKKIEKLEEYRLLLKRLQPEFKTRIIPTDIISDLSECLINQECEEILQICSTKGMMAGAEKLVECLLRSDKENWPKTLKLALEKERNKFSELWIVEKGIKDVETEDLEDKMETSDIQIFYQEDPECQNLSENSCPPSEVSDTNLYSPFKPRNYQLELALPAMKGKNTIICAPTGCGKTFVSLLICEHHLKKFPQGQKGKVVFFANQIPVYEQQKSVFSKYFERHGYRVTGISGATAENVPVEQIVENNDIIILTPQILVNNLKKGTIPSLSIFTLMIFDECHNTSKQHPYNMIMFNYLDQKLGGSSGPLPQVIGLTASVGVGDAKNTDEALDYICKLCASLDASVIATVKHNLEELEQVVYKPQKFFRKVESRISDKFKYIIAQLMRDTESLAKRICKDLEQLSQIQNREFGTQKYEQWIVTVQKACMVFQMPDKDEESRICKALFLYTSHLRKYQDALIISEHARMKDALDYLKDFFSNVRAAGFEEIEQDLTQRFEEKLQELESVSRDPSNENPKLEDLCFILQEEYHLNPETITILFVKTRALVDALKNWIEGNPKLSFLKPGILTGRGKTNQNTGMTLPAQKCILDAFKASGDHNILIATSVADEGIDIAQCNLVILYEYVGNVIKMIQTRGRGRARGSKCFLLTSNAGVIEKEQINMYKEKMMNDSILRLQTWDEAVFREKILHIQTHEKFIRDSQEKPKPVPDKENKKLLCRKCKALACYTADVRVIEECHYTVLGDAFKECFVSRPHPKPKQFSSFEKRAKIFCARQNCSHDWGIHVKYKTFEIPVIKIESFVVEDIATGVQTLYSKWKDFHFEKIPFDPAEMSK
size of RIG-I elution fractions (oligomerization) [6]: 440-670 kDa
IFN-β and RANTES in supernatant [7]: Increased IFN-β and RANTES expression
charge shift of RIG-I (deamidation) upon UL37 expression or recombinant HSV-1 infection [8]: deamidation-resistant
reduction of HSV-1 replication / titer [9]: 75-90%
